The target of this experiment is K12-acetylated histone H4 tail peptide (residues 1–20), biotinylated at the C-terminus (UniProt P62805). Nature of the experiment: SPR. Background: In SPR one partner is held on a chip, and binding of the other changes the refractive index at the surface.

Usually pKd stands for −log10 of the Kd, conventionally taken in molar units.

pKd: −log10 of the molar value.

Substance “second bromodomain of human BRD2 (BRD2-BD2: residues 348–455) (from UniProt P25440 348-455) (domain or fragment)” gave a pKd of 3.52.

Values taken from publication PMC4158924.
